Assay results published in US20240325562A1, “INTERNALIZING BINDING MOLECULES” (LinXis B.V., priority 2020, published 2024).

Key:
[1] = system: primary activated rat hepatic stellate cells (HSCs); experiment: Binding to primary activated rat hepatic stellate cells; assay type: cell-based; settings: Alexa Fluor 488 conjugate; HSCs from BDL rat, 6 days in culture
Source text: The cross-reactivity of F11-E8-ABD was further evaluated in binding experiments to primary activated rat hepatic stellate cells (HSCs). For this, the construct was conjugated to Alexa Fluor 488 according to the methods described in example 10.2. Activated HSCs were obtained from a perfused liver of a cirrhotic bile duct ligated (BDL) rat through density gradient centrifugation. Cells were kept in culture for 6 days to allow complete activation. […] Simultaneously, binding of the VHH construct to the activated cells was evident, further confirming species cross-reactivity of the construct.

[2] = Biodistribution by whole-body PET of 89Zr-labelled constructs; assay type: in vivo; settings: 89Zr-desferral labelled, i.v., rats
Description: (§1) The in vivo pharmacokinetic properties of 13F11-13E8-ABD (F11E8-ABD; with ABD) and 13F11-13E8 (F11E8; without ABD) were compared in healthy Sprague-Dawley rats. In brief, rats were dosed intravenously with approximately 3 mg/kg body weight and blood samples were taken at different time points and the concentration of the VHH constructs were determined using an ELISA on immobilized hIGF2R-ECD. […] To further confirm the functionality of the ABD, biodistribution of F11E8-ABD and F11E8 were assessed by means of Positron Emission Tomography (PET). In brief, the constructs were radio-labelled with the positron emitter ^89Zr-desferral according to Verel et al (J Nucl Med. 2003; 44:1271-1281), and administered intravenously to rats after which biodistribution was assessed on subsequent time points by whole-body PET.

[3] = In vivo pharmacokinetics in rats, serum ELISA on hIGF2R-ECD; parameters: species or system Sprague-Dawley rats
Description: as §1

hPDGFRB = hPDGFRB (Homo sapiens, UniProt P09619); experiment: Competition assays of PDGFRB VHHs on hPDGFRB; assay type: binding; settings: IRDye800-conjugated SP26P as reporter
Description: (§2) Biparatopic VHH constructs contain two VHH which bind to a different epitope, i.e. which are non-competitive binders. To identify (a) pair(s) of non-competitive binders, competition assays were performed. In the example shown, an Alexa fluor-conjugate of the high affine VHH 13F11 was used as the reporter VHH (13F11-A647, see example 10.2). In the assay, a non-saturating amount (10 nM) of 13F11-A647 was incubated with immobilized hIGF2R-ECD in the presence or absence of 250 nM unconjugated competitor VHH to allow competition to take place.
(§3) Similar as to in example 6.1, competition assays were performed to identify unique hPDGFRB- or rPDGFRB binders. Across 10 PDGFRB-binding VHHs obtained from libraries 1 and 2 (e.g. the VHH raised against hPDGFRB), four main groups were identified being first SP01P, SP02P, SP07P and SP13P, second SP05P, SP08P and SP10P, third SP12P and SP20P and finally SP14P. All VHH within each of the first three groups mutually competed.
To evaluate whether the obtained VHHs would qualify as building blocks for multivalent VHH constructs that bind hPDGFRB as well as rPDGFRB (e.g. ‘species cross-reactive’ VHH constructs), competition assays were performed using the most promising VHHs SP02 (raised against hPDGFRB) and SP26P (raised against rPDGFRB).

rPDGFRB = rPDGFRB (Rattus norvegicus, UniProt Q05030); experiment: Competition assays of PDGFRB VHHs on rPDGFRB; assay type: binding; settings: VHHs from libraries 3 and 4
Description: as §2, §3

[4] = target: T1, rPDGFRB (SCC-rPDGFRB cells) (Rattus norvegicus, UniProt Q05030); experiment: Binding to cells transgenically expressing rat PDGFRB
T1 construct: SCC VII cells transgenically expressing full-length rat PDGFRB (SCC-rPDGFRB); expressed in transfected cells; host or cells: murine SCC VII cells
Description: (§4) High affine binders to hPDGFRB-ECD or rPDGFRB-ECD were subsequently assessed for binding to SCC VII cells transfected with hPDGFRB and rPDGFRB, respectively.
(§5) Based on their high affinity and binding to non-overlapping hPDGRB epitopes, various biparatopic constructs were prepared based on VHHs SP02P, SP12P SP14P, SP26P and SP28P. The constructs were produced as described in example 7.1. and subjected to binding assay.
(§6) As Shown in FIG. 15C), the binding affinity of this construct for both hPDGFRB and rPDGFRB are below 5 nM. […] These observations make SP02P (or similar VHH) and SP26P (or similar VHH) particularly promising for use in the present invention.

[5] = target: T2, hPDGFRB (SCC-hPDGFRB cells) (Homo sapiens, UniProt P09619); experiment: Binding to cells transgenically expressing human PDGFRB
T2 construct: SCC VII cells transgenically expressing full-length human PDGFRB (SCC-hPDGFRB); expressed in transfected cells; host or cells: murine SCC VII cells
Description: as §4, §5, §6

hPDGFRB-ECD = hPDGFRB-ECD (Homo sapiens, UniProt P09619); experiment: Binding assay on hPDGFRB-ECD; settings: biparatopic constructs, FIG. 15A
Description: The 15 unique hIGF2R-binding VHH (Example 2.1, FIG. 2) were produced and purified as described in examples 3 and 4. The apparent affinities were determined through binding assay on immobilized hIGF2R-ECD. Briefly, three-fold serial dilution series, starting from 1 μM, of each VHH were plated onto hIGF2R-ECD coated plates. VHH were allowed to bind for two hours after which plates were washed. Then, bound VHH was detected using a VHH-specific IgG antibody, followed by an IRD800CW-conjugated IgG-specific antibody. Plates were read out by fluorimetry.
The 18 unique hPDGFRB binders from libraries 1 and 2, and the 11 unique rPDGFRB binders from libraries 3 and 4 (Example 2.2, FIGS. 5 and 6) were produced and purified as described in examples 3 and 4. Then, the apparent affinities were determined with binding assays on hPDGFRB-ECD and rPDGFRB-ECD, respectively, the setup described in example 5.1. Results are summarized in FIGS. 5 and 6 for the hPDGFRB and rPDGFRB VHHs, respectively.
as §5
As Shown in FIG. 15C), the binding affinity of this construct for both hPDGFRB and rPDGFRB are below 5 nM. […]

T1 sequence (Q05030 32-1097): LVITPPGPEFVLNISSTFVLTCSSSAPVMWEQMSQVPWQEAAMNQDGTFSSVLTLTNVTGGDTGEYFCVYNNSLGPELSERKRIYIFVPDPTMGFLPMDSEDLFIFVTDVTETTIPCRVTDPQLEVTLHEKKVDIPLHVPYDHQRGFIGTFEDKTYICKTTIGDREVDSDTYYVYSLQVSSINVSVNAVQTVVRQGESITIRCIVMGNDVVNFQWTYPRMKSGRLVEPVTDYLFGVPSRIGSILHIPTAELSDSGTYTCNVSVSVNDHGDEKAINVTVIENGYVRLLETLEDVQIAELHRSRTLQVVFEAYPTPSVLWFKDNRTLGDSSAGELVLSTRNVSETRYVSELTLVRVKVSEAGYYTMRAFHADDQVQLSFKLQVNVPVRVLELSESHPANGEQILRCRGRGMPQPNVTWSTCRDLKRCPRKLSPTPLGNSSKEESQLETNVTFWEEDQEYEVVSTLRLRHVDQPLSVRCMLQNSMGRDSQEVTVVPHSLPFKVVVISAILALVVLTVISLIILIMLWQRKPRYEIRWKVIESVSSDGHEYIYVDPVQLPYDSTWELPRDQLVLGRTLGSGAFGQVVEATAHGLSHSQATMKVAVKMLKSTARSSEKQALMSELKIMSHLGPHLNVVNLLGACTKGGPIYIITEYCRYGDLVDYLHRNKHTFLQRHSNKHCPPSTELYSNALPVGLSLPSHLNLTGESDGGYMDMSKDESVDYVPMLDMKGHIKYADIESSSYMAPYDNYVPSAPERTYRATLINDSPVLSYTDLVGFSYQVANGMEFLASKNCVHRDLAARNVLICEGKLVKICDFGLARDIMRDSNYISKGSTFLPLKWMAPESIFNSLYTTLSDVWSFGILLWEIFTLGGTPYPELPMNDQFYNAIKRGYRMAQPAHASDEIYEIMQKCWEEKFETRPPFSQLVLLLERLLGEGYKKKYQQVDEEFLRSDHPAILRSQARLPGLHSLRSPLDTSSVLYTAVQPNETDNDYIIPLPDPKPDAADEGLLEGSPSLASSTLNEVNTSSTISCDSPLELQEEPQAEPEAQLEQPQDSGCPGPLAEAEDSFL
Chain of rPDGFRB (Q05030 32-1097): as above
T2 sequence (P09619 33-1106): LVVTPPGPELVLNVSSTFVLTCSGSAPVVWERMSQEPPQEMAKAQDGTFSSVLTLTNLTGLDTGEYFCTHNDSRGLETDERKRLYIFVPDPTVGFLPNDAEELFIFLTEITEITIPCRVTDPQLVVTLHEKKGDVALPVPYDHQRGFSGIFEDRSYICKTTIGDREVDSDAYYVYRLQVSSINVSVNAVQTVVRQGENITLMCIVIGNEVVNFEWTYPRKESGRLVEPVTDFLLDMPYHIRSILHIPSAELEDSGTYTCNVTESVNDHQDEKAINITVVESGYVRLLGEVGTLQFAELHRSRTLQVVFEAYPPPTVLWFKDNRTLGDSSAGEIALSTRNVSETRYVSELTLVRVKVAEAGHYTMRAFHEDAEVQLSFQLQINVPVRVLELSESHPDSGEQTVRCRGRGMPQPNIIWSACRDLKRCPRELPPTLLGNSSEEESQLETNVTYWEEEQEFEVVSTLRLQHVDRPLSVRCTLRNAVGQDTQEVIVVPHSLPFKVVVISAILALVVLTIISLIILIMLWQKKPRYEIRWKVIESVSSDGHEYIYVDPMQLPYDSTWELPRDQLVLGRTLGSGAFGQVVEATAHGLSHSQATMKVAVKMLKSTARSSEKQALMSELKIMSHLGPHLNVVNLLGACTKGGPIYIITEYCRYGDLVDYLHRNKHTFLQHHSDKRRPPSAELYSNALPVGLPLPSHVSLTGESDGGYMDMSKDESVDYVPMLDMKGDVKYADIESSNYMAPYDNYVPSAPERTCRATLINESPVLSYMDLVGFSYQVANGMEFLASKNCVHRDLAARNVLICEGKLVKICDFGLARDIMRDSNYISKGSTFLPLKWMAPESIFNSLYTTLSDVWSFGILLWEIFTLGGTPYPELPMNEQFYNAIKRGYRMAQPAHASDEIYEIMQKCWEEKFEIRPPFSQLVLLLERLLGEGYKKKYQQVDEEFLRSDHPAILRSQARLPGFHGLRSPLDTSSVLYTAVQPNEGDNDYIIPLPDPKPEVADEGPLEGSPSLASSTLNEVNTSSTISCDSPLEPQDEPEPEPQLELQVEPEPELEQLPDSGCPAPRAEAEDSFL
Chain of hPDGFRB-ECD (P09619 33-532 limits assumed): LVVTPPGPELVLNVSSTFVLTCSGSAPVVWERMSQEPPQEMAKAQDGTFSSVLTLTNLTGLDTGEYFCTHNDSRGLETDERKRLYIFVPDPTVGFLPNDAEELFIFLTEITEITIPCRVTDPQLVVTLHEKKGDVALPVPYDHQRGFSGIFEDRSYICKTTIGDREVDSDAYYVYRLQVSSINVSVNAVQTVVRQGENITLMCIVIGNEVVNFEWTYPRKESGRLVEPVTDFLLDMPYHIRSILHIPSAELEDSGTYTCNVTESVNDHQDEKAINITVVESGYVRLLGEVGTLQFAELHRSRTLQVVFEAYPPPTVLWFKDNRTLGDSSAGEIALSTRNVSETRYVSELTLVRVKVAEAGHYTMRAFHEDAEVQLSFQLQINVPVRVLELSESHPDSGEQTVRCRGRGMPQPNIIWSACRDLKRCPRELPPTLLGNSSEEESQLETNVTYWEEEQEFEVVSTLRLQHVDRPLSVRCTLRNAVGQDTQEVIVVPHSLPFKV
Chain of hPDGFRB (P09619 33-532 limits assumed): as above

B1: 13F11-13E8-ABD: 13F11-13E8 re-engineered to include an albumin binding domain (ABD) as half-life extender (protein)
chain: EVQLVESGGRLVQPGDSLRLSCAASGRTFSDNAMGWFRQAPGKERRFVAGISWAGGSTYYSDSVKGRFTISRDNAKNTVYLQMNSLKPEDTAVYYCAAGLRAWVQRMPKDYNYWGQGTQVTVSSGGGGSGGGGSGGGGSEVQLVESGGGLVQAGGSLRLSCAASRSISPMGWYRQAPGKQRELVAIMPSSGPPIYADSVQGRFTISRDNAKNTVYLQMNSLKPEDTAVYYCNVGGGYWGQGTQVTVSS
modifications: left off: large carriers; small tags and cut ends
binding to activated HSCs [1]: evident | biodistribution (PET) [2]: accumulate in the liver | infused dose still in circulation ([3]; one hour after dosing, approximately 20 nmoles infused, estimated serum volume 10 mL): approximately 50% | Cmax ([3]; rats, i.v., approximately 3 mg/kg, read-out: peak serum level (Cmax)): > 1000 nM

B2: SP26P: VHH single domain antibody targeting PDGFRB, SEQ ID NO: 153 (protein)
VHH: EVQLVESGGGLVQAGGSLRLSCAASGRSFSSSVMGWFRQTPGKEREFVAATRWTAASTHYADSVKGRFTISRDHAENAVFLQMNSLKPEDTAVYYCAAGNYLDTAQYRYNYWGQGTQVTVSS
competition between SP02 and SP26P (hPDGFRB): did not compete | epitope compared to SP27P, SP28P, SP30P, SP31P and SP36P (rPDGFRB): unique epitope

B3: SP26P-SP28P: biparatopic construct based on VHH raised against rPDGFRB (protein)
chain: EVQLVESGGGLVQAGGSLRLSCAASGSIVSFNGINWYRQAPGKQREWVGGITQGGNTMYADSVRGRFTISRDNTKNTMYLQMNSLKPEDTAVYYCRRPPVASWGQGTQVTVSSGGGGSGGGGSGGGGSEVQLVESGGGLVQAGGSLRLSCAASGRSFSSSVMGWFRQTPGKEREFVAATRWTAASTHYADSVKGRFTISRDHAENAVFLQMNSLKPEDTAVYYCAAGNYLDTAQYRYNYWGQGTQVTVSS
modifications: left off: small tags and cut ends
notes: biparatopic construct based on VHH raised against rPDGFRB
affinity for rPDGFRB on cells [4]: high affinity | affinity for hPDGFRB on cells [5]: low affinity | affinity for hPDGFRB (hPDGFRB-ECD): lowest affinity
